Measurements: patent publication US20150274828A1 (SHANGHAI SERUM BIOTECHNOLOGY, published 2015)
Positions count from the first letter of the chain named.

B1: Ame55 phage single chain antibody (scFv)
scFv: SYELTQPPSVSVAPGQTARITCSGDALGDKYASWYQQKPGQAPVLVIYEDSKRPSGIPERFSGSNSGNTATLTISGTQAEDEADYYCSVWDGDWGMPVFGGGTKLTVLGSGGSTITSYNVYYTKLSSSGSEVQLVQSGAEVKKPGESLKISCKGSGYSFTSYWIGWVRQMPGKGLEWMGIIYPGDSDTRYSPSFQGQVTISADKSISTAYLQWSSLKASDTAMYYCARGIIYPSNVAVWGQGTLVTVSS
notes: the phage coat fusion is not described; also called Ame55 phage antibody; Ame55 single chain antibody
B2: Ame55 mutant, light chain 89S(A1) (antibody, V domains shown)
VH: EVQLVQSGAEVKKPGESLKISCKGSGYSFTSYWIGWVRQMPGKGLEWMGIIYPGDSDTRYSPSFQGQVTISADKSISTAYLQWSSLKASDTAMYYCARGIIYPSNVAVWGQGTLVTVSS
VL: SYELTQPPSVSVAPGQTARITCSGDALGDKYASWYQQKPGQAPVLVIYEDSKRPSGIPERFSGSNSGNTATLTISGTQAEDEADYYCSSWDGDWGMPVFGGGTKLTVLG
notes: Mutant of Ame55
B3: Ame-9B (antibody, V domains shown)
VH: EVQLVESGGGLVQPGGSLRLSCAASGFTFSSYAMSWVRQAPGKGLEWVSAITGTGGETYYADSVKGRFTISRDNSKNTLYLQMNSLRAEDTAVYYCARGWSWTGVDPWGQGTLVTVSS
VL: B2 VL with S89V
notes: Expressed in HEK293, purified on Protein A; also called mutant Ame-9B
B4: Ame55 intact antibody (IgG1) (antibody, V domains shown)
VH: B2 VH
VL: B2 VL with S89V
notes: Variable regions cloned into vectors pABL and pABG1 and expressed in HEK293T as intact IgG1 with lambda light chain; also called Amet55; parent antibody Ame55
B5: Ame55 mutant, light chain 97A (antibody, V domains shown)
VH: B2 VH
VL: B2 VL with S89V, P97A
notes: Mutant of Ame55
B6: Ame55 mutant, light chain 92S (antibody, V domains shown)
VH: B2 VH
VL: B2 VL with S89V, G92S
notes: Mutant of Ame55
B7: Ame55 mutant, light chain 91A (antibody, V domains shown)
VH: B2 VH
VL: B2 VL with S89V, D91A
notes: Mutant of Ame55
B8: Ame55 mutant, light chain 95S (antibody, V domains shown)
VH: B2 VH
VL: B2 VL with S89V, G95S
notes: Mutant of Ame55
B9: Ame55 mutant, light chain 26N(C2) (antibody, V domains shown)
VH: B2 VH
VL: B2 VL with A26N, S89V
notes: Mutant of Ame55
B10: Ame55 mutant, light chain 88N (antibody, V domains shown)
VH: B2 VH
VL: B2 VL with S88N, S89V
notes: Mutant of Ame55
B11: AmeA2C3 (the mutated light chain has Lys at site 26 and Ala at site 89) (antibody, V domains shown)
VH: B2 VH
VL: B2 VL with A26K, S89A
notes: Mutant of Ame55; also called 26K + 89A
B12: AmeA1C1 (the mutated light chain has Gly at site 26 and Ser at site 89) (antibody, V domains shown)
VH: B2 VH
VL: B2 VL with A26G
notes: Mutant of Ame55; also called 26G + 89S
B13: Ame55 mutant, light chain 92P (antibody, V domains shown)
VH: B2 VH
VL: B2 VL with S89V, G92P
notes: Mutant of Ame55
B14: Ame55 mutant, light chain 55P (antibody, V domains shown)
VH: B2 VH
VL: B2 VL with S55P, S89V
notes: Mutant of Ame55
B15: AmeA2C1 (the mutated light chain has Gly at site 26 and Ala at site 89) (antibody, V domains shown)
VH: B2 VH
VL: B2 VL with A26G, S89A
notes: Mutant of Ame55; also called 26G + 89A
B16: AmeA2 (Ame55 mutant, light chain 89A(A2)) (antibody, V domains shown)
VH: B2 VH
VL: B2 VL with S89A
notes: Mutant of Ame55
B17: Ame55 mutant, light chain 96A (antibody, V domains shown)
VH: B2 VH
VL: B2 VL with S89V, M96A
notes: Mutant of Ame55
B18: Ame55 mutant, light chain 88A (antibody, V domains shown)
VH: B2 VH
VL: B2 VL with S88A, S89V
notes: Mutant of Ame55
B19: Ame55 mutant, light chain 51G (antibody, V domains shown)
VH: B2 VH
VL: B2 VL with S51G, S89V
notes: Mutant of Ame55
B20: Ame55 mutant, light chain 32I (antibody, V domains shown)
VH: B2 VH
VL: B2 VL with A32I, S89V
notes: Mutant of Ame55
B21: Ame55 mutant, light chain 29E (antibody, V domains shown)
VH: B2 VH
VL: B2 VL with D29E, S89V
notes: Mutant of Ame55
B22: AmeA1C3 (the mutated light chain has Lys at site 26 and Ser at site 89) (antibody, V domains shown)
VH: B2 VH
VL: B2 VL with A26K
notes: Mutant of Ame55; also called 26K + 89S
B23: Ame55 mutant, light chain 95A (antibody, V domains shown)
VH: B2 VH
VL: B2 VL with S89V, G95A
notes: Mutant of Ame55
B24: Ame55 mutant, light chain 88G (antibody, V domains shown)
VH: B2 VH
VL: B2 VL with S88G, S89V
notes: Mutant of Ame55
B25: Ame55 mutant, light chain 26G(C1) (antibody, V domains shown)
VH: B2 VH
VL: B2 VL with A26G, S89V
notes: Mutant of Ame55
B26: Ame55 mutant, light chain 94A (antibody, V domains shown)
VH: B2 VH
VL: B2 VL with S89V, W94A
notes: Mutant of Ame55
B27: Ame55 mutant, light chain 93A (antibody, V domains shown)
VH: B2 VH
VL: B2 VL with S89V, D93A
notes: Mutant of Ame55
B28: Ame55 mutant, light chain 88L (antibody, V domains shown)
VH: B2 VH
VL: B2 VL with S88L, S89V
notes: Mutant of Ame55
B29: Ame55 mutant, light chain 32V (antibody, V domains shown)
VH: B2 VH
VL: B2 VL with A32V, S89V
notes: Mutant of Ame55
B30: Ame55 mutant, light chain 92A (antibody, V domains shown)
VH: B2 VH
VL: B2 VL with S89V, G92A
notes: Mutant of Ame55
B31: Ame55 mutant, light chain 88Y (antibody, V domains shown)
VH: B2 VH
VL: B2 VL with S88Y, S89V
notes: Mutant of Ame55
B32: Ame55 mutant, light chain 26K(C3) (antibody, V domains shown)
VH: B2 VH
VL: B2 VL with A26K, S89V
notes: Mutant of Ame55
B33: Ame55 mutant, light chain 90A (antibody, V domains shown)
VH: B2 VH
VL: B2 VL with S89V, W90A
notes: Mutant of Ame55
B34: Ame55 mutant, light chain 88Q (antibody, V domains shown)
VH: B2 VH
VL: B2 VL with S88Q, S89V
notes: Mutant of Ame55
B35: Ame55 mutant, light chain 89L (antibody, V domains shown)
VH: B2 VH
VL: B2 VL with S89L
notes: Mutant of Ame55
B36: Ame55 mutant, light chain G28P (antibody, V domains shown)
VH: B2 VH
VL: B2 VL with G28P, S89V
notes: Mutant of Ame55
B37: Ame55 mutant, light chain 33Y (antibody, V domains shown)
VH: B2 VH
VL: B2 VL with S33Y, S89V
notes: Mutant of Ame55

These binders were tested against T1, EGFR-Fc fusion protein (recombinant EGFR extracellular region-Fc) (human, UniProt P00533 25-645) (assay: phage ELISA, EGFR-Fc coated, anti-M13-HRP).
T1 construct: extracellular domain; not shown: Fc part supplied by vector pABG1

Row | Binder | binding result
1 | B1 | binds

What follows are binders tested against T1, EGFR-Fc fusion protein (recombinant …) (assay: BLI ForteBio QKe, biotinylated EGFR-Fc on streptavidin sensor).

Row | Binder | fold increase of affinity against parent antibody Ame55 [times]
2 | B2 | 4

The binders below were run against T1, EGFR-Fc fusion protein (recombinant …) (assay: BLI Fortebio, method of Example 5 (biotinylated EGFR-Fc on streptavidin sensor)).

Row | Binder | fold decrease of affinity (against Ame55) [times]
3 | B3 | ~6

Each binder was assayed against T2, EGFR on A431 cell surface (human, UniProt P00533 25-1210) (assay: flow cytometry on A431 cells, antibody 0.03 µg/ml, FITC anti-human IgG).
T2 construct: whole, on cells; also called natural EGFR on surface of A431 cell

Row | Binder | binding result
4 | B4 | binds

Each binder was assayed against T3, Recombinant human epidermal growth factor (EGF) (human, UniProt P01133 971-1023) (assay: ELISA, EGF coated at 1 µg/well, antibody without EGFR-Fc, HRP goat anti-human IgG).
T3 construct: Coated on the ELISA plate; also called EGR
T3 sequence (P01133 971-1023 limits assumed): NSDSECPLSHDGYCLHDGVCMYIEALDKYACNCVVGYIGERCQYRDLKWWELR

Row | Binder | binding result
5 | B4 | no binding

Each binder was assayed against T1, EGFR-Fc fusion protein (recombinant …) (assay: BLI ForteBio QKe, biotinylated EGFR-Fc on streptavidin sensor, antibody 20 nM; fold reduction of affinity, parent Ame55 = 1;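 note: parent antibody affinity set as 1, with values giving the fold drop in affinity of each mutant antibody relative to that parent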).

Row | Binder | Affinity change [fold]
6 | B5 | > 10
7 | B6 | 4
8 | B7 | > 10
9 | B2 | 0.5
10 | B8 | > 10
11 | B9 | 1
12 | B10 | > 10
13 | B11 | < 0.1
14 | B12 | < 0.3
15 | B13 | 1
16 | B14 | 2
17 | B15 | < 0.2
18 | B16 | 0.25
19 | B17 | > 10
20 | B18 | > 10
21 | B19 | 1
22 | B20 | 1

Row | Binder | Affinity change [fold]
23 | B21 | > 100
24 | B22 | < 0.2
25 | B23 | > 10
26 | B24 | 3
27 | B25 | 0.5
28 | B26 | > 10
29 | B27 | > 10
30 | B28 | 5
31 | B29 | 2
32 | B30 | 2
33 | B31 | 5
34 | B32 | 0.3
35 | B33 | > 10
36 | B34 | 2
37 | B35 | 5
38 | B36 | > 100
39 | B37 | 2
